Test results published in publication PMC4216189 (Biochemistry, 2014).

Target: T1, Escherichia coli lipoyl synthase, hexahistidine-tagged (Escherichia coli, UniProt P60716 1-321)
T1 sequence (looked up): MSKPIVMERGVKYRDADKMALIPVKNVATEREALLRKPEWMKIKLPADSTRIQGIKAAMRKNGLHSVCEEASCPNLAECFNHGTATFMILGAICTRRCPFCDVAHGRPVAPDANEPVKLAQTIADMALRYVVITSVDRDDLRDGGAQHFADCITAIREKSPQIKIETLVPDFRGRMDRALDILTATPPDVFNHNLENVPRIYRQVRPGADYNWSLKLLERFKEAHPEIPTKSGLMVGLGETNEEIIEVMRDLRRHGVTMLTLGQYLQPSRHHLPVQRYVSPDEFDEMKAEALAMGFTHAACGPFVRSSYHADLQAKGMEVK
Test: co-elution on anion-exchange chromatography

B1: [8,8,8-2H3]-octanoyl-H protein of Escherichia coli (natural protein, UniProt P0A6T9 1-129, looked up)
chain: MSNVPAELKYSKEHEWLRKEADGTYTVGITEHAQELLGDMVFVDLPEVGATVSAGDDCAVAESVKAASDIYAPVSGEIVAVNDALSDSPELVNSEPYAGGWIFKIKASDESELESLLDATAYEALLEDE
modifications: N6-([8,8,8-2H3]-octanoyl)-lysine (position not given)
B1: binds.

B2: octanoyl-H protein of Escherichia coli (unlabeled) (natural protein, UniProt P0A6T9 1-129, looked up)
chain: B1 chain
modifications: N6-octanoyl-lysine (position not given)
B2: binds.
